Patent US20190177417A1 (BIOATLA, published 2019)

T1: Axl protein (human, UniProt P30530 26-451)
T1 construct: extracellular domain; also called human Axl; hAxl
T1 sequence (looked up): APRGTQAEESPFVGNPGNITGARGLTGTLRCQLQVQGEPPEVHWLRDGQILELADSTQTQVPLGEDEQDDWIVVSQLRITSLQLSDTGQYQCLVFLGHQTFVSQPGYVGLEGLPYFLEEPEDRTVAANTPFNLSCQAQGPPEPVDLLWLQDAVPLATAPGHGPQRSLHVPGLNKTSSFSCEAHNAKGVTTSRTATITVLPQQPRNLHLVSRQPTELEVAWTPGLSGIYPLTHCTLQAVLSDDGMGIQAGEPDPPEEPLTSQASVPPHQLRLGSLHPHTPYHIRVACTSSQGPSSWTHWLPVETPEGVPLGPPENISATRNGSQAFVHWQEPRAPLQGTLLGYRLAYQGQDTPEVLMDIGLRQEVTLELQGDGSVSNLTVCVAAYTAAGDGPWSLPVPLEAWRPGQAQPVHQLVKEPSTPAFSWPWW


Tests used:
[1] = target: T1, Axl protein; experiment: ELISA, 1:3 dilution, pH 6.0 over pH 7.4
[2] = target: T1, Axl protein; experiment: ELISA, 1:9 dilution, pH 6.0 over pH 7.4

Binder	Affinity ELISA CPE mutant ratio (1:3, pH 6.0/7.4) [1]	Affinity ELISA CPE mutant ratio (1:9, pH 6.0/7.4) [2]
HC-E102H (antibody, V domains shown) VH: EVQLVQSGAEVKKPGATVKISCKVSGYSFTGHTMNWIRQPPGKGLEWIGLIKPSNGGTSYNQKFKGRVTISADKSISTAYLQWSSLKASDTAMYYCAHGHYHSYFAMDYWGQGTLVTVSS VL: DIQMTQSPSSLSASVGDRVTITCKASQDVSSAVAWYQQKPGQAPRLLIYWASTRHTGVPSRFSGSGSGTEFTLTISSLQPDDFATYYCQEHFSTPLTFGQGTKVEIK	2.08 ratio	2.31 ratio
HC-E102M (antibody, V domains shown) VH: EVQLVQSGAEVKKPGATVKISCKVSGYSFTGHTMNWIRQPPGKGLEWIGLIKPSNGGTSYNQKFKGRVTISADKSISTAYLQWSSLKASDTAMYYCAHGHYMSYFAMDYWGQGTLVTVSS VL: DIQMTQSPSSLSASVGDRVTITCKASQDVSSAVAWYQQKPGQAPRLLIYWASTRHTGVPSRFSGSGSGTEFTLTISSLQPDDFATYYCQEHFSTPLTFGQGTKVEIK	2.08 ratio	2.36 ratio
HC-A106D (antibody, V domains shown) VH: EVQLVQSGAEVKKPGATVKISCKVSGYSFTGHTMNWIRQPPGKGLEWIGLIKPSNGGTSYNQKFKGRVTISADKSISTAYLQWSSLKASDTAMYYCAHGHYESYFDMDYWGQGTLVTVSS VL: DIQMTQSPSSLSASVGDRVTITCKASQDVSSAVAWYQQKPGQAPRLLIYWASTRHTGVPSRFSGSGSGTEFTLTISSLQPDDFATYYCQEHFSTPLTFGQGTKVEIK	3.39 ratio	2.51 ratio
HC-W110T (antibody, V domains shown) VH: EVQLVQSGAEVKKPGATVKISCKVSGYSFTGHTMNWIRQPPGKGLEWIGLIKPSNGGTSYNQKFKGRVTISADKSISTAYLQWSSLKASDTAMYYCAHGHYESYFAMDYTGQGTLVTVSS VL: DIQMTQSPSSLSASVGDRVTITCKASQDVSSAVAWYQQKPGQAPRLLIYWASTRHTGVPSRFSGSGSGTEFTLTISSLQPDDFATYYCQEHFSTPLTFGQGTKVEIK	7.47 ratio	1.37 ratio
HC-A106G (antibody, V domains shown) VH: EVQLVQSGAEVKKPGATVKISCKVSGYSFTGHTMNWIRQPPGKGLEWIGLIKPSNGGTSYNQKFKGRVTISADKSISTAYLQWSSLKASDTAMYYCAHGHYESYFGMDYWGQGTLVTVSS VL: DIQMTQSPSSLSASVGDRVTITCKASQDVSSAVAWYQQKPGQAPRLLIYWASTRHTGVPSRFSGSGSGTEFTLTISSLQPDDFATYYCQEHFSTPLTFGQGTKVEIK	1.52 ratio	2.2 ratio
HC-W110N (antibody, V domains shown) VH: EVQLVQSGAEVKKPGATVKISCKVSGYSFTGHTMNWIRQPPGKGLEWIGLIKPSNGGTSYNQKFKGRVTISADKSISTAYLQWSSLKASDTAMYYCAHGHYESYFAMDYNGQGTLVTVSS VL: DIQMTQSPSSLSASVGDRVTITCKASQDVSSAVAWYQQKPGQAPRLLIYWASTRHTGVPSRFSGSGSGTEFTLTISSLQPDDFATYYCQEHFSTPLTFGQGTKVEIK	4.3 ratio	0.8 ratio
HC-A106L (antibody, V domains shown) VH: EVQLVQSGAEVKKPGATVKISCKVSGYSFTGHTMNWIRQPPGKGLEWIGLIKPSNGGTSYNQKFKGRVTISADKSISTAYLQWSSLKASDTAMYYCAHGHYESYFLMDYWGQGTLVTVSS VL: DIQMTQSPSSLSASVGDRVTITCKASQDVSSAVAWYQQKPGQAPRLLIYWASTRHTGVPSRFSGSGSGTEFTLTISSLQPDDFATYYCQEHFSTPLTFGQGTKVEIK	21.5 ratio	1.61 ratio
